Data taken from publication PMC10244618.
Where “and” joins values, the source holds several entries; their conditions need not be identical. Equal values may be shown once.

B1: NF2 (merlin) isoform 7, human, full length (507 aa, lacks exons 2-3 = isoform-1 residues 39-121; exon-16 C-terminus), P35240-4 (parent)
chain: MAGAIASRMSFSSLKRKQPKTFTVRIVTMDAEMEFNCEVKKQILDEKIYCPPEASVLLASYAVQAKYGDYDPSVHKRGFLAQEELLPKRVINLYQMTPEMWEERITAWYAEHRGRARDEAEMEYLKIAQDLEMYGVNYFAIRNKKGTELLLGVDALGLHIYDPENRLTPKISFPWNEIRNISYSDKEFTIKPLDKKIDVFKFNSSKLRVNKLILQLCIGNHDLFMRRRKADSLEVQQMKAQAREEKARKQMERQRLAREKQMREEAERTRDELERRLLQMKEEATMANEALMRSEETADLLAEKAQITEEEAKLLAQKAAEAEQEMQRIKATAIRTEEEKRLMEQKVLEAEVLALKMAEESERRAKEADQLKQDLQEAREAERRAKQKLLEIATKPTYPPMNPIPAPLPPDIPSFNLIGDSLSFDFKDTDMKRLSMEIEKEKVEYMEKSKHLQEQLNELKTEIEALKLKERETALDILHNENSDRGGSSKHNTIKKPQAQGRRPICI

Variants of: B1
Test: reverse yeast two-hybrid deep mutational scan (rY2H-seq): NF2 isoform 7 mutant library as bait mated with wild-type prey strains; selection on medium lacking adenine for non-interacting pairs; NextSeq paired-end sequencing; enrichment vs …
Details: yeast diploids after mating (RBait_S3 x RPrey_S3), 30 °C, selection for reporter genes on NB agar, HIGHER = WEAKER BINDING (the opposite of display enrichments): higher = stronger loss of interaction: reverse Y2H selects yeast in which bait and prey do NOT interact (growth without adenine), so a …, hits-only table, scale: rY2H score, numbering: uniprot, sequence starts at 1
[1] = with EMILIN1 (elastin microfibril interfacer 1), Q9Y6C2, human ABL2 co-expressed as the kinase-dead K35M mutant …
[2] = with EMILIN1 (elastin microfibril interfacer 1), Q9Y6C2, human tyrosine kinase ABL2 co-expressed as the active kinase …
[3] = with NF2 C-terminal domain (wild type; homomeric NF2-NF2 interaction), P35240, human ABL2 co-expressed as the kinase-dead K35M mutant …, partner unresolved
[4] = with KDM1A (lysine-specific histone demethylase 1A; the table's label AOF2 is a gene synonym of KDM1A), O60341, human ABL2 co-expressed as the kinase-dead K35M mutant …
[5] = with KDM1A (lysine-specific histone demethylase 1A; the table's label AOF2 is a gene synonym of KDM1A), O60341, human tyrosine kinase ABL2 co-expressed as the active kinase …
[6] = with PIK3R3 (phosphatidylinositol 3-kinase regulatory subunit gamma), Q92569, human tyrosine kinase ABL2 co-expressed as the active kinase …

Variant | enrichment [1] | enrichment [2] | enrichment [3] | enrichment [4] | enrichment [5] | enrichment [6]
P413L | 1.88 | 2.88 | – | – | – | –
I507R | 1.52 | – | 2.16 | – | – | –
K388A | 1.75 | – | – | 2.24 and 3.28 | 1.43 and 2.22 | 3.36
V352E | 1.87 | – | – | – | – | –
M401W | 2.39 | 2.1 and 5.12 | – | – | – | –
M401A | 2.05 | – | – | 3.12 | 3.23 and 2.41 | 1.56
D420A | 2.04 | – | 2.35 | – | – | –
I418L | 6.81 | – | – | 6.54 | – | –
I418K | 1.67 | – | – | 1.67 | – | –
I418W | 16.4 | – | – | 19.8 | – | –
N482K | 2.14 | – | – | – | – | –
R383L | 3.93 and 2.71 | – | – | – | – | –
P403R | 5.14 | 3.53 | – | – | – | 3.96
T397A | 2.04 | – | – | 1.66 | – | –
T397R | 2.87 and 2.64 | – | – | 2.17 | – | –
P497L | 2.21 | 2.34 | 2.98 | – | 5.64 | –
L355K | 3.38 | – | – | – | – | –
A385L | 1.74 | – | 1.47 and 2.16 | 1.79 | 1.94 | –
A385K | 1.6 | – | 3.03 | – | – | 1.74
Y398L | 1.89 | 2.45 | – | – | – | 1.96
Y398F | 1.39 and 2 | 1.38 and 1.78 | – | 1.87 | 2.06 | –
Y398A | 1.36 | – | – | – | 3.19 | –

Variant | enrichment [1] | enrichment [2] | enrichment [3] | enrichment [4] | enrichment [5] | enrichment [6]
Y398E | 8.39 | 15.7 | 3.87 and 6.52 | – | – | –
A381K | 4.94 | 10.4 | – | – | 6.12 | –
T473L | 4.41 | – | 3.74 and 2.38 | 8.75 | – | 4.41
R384A | 2.36 | – | 2.38 | – | – | –
L390W | 1.53 | – | – | – | – | –
N402T | 1.9 | – | – | – | – | –
R364E | 1.5 | 5.32 | 2.76 | – | – | –
P405E | 1.6 | – | 1.76 | 2.38 | – | 1.85 and 3.91
P405Q | 3.57 and 2.37 | – | – | – | – | 4.58
D484L | 2.38 | – | – | – | 4.48 | –
D484A | 2.01 | – | – | – | – | –
T429L | 1.9 | – | – | – | – | –
L353W | 1.51 | – | – | 1.6 | – | –
L353T | 8.41 | – | – | – | – | –
S483A | 2.27 | 3.86 and 4.2 | – | 2.24 | – | –
S55L | – | 2.05 | – | – | – | –
P410L | 3.26 and 3.02 | 5.11 and 2.8 | 2.14 and 2.85 | 5.35 and 7.09 | 6.37 and 2.41 | 2.56
A378K | 5.56 | – | 4.21 | – | – | –
L422K | 3.21 | – | – | 1.93 | – | –
P396L | 3.03 | 2.65 | – | 2.88 | – | –
P396A | 1.61 and 2.83 | – | – | – | 4.55 | 1.66
S13F | – | 1.87 | – | – | – | –

Variant | enrichment [1] | enrichment [2] | enrichment [3] | enrichment [4] | enrichment [5] | enrichment [6]
D374K | 2.38 | – | – | – | – | 5.15
V56K | – | 3.86 | – | 8.67 | – | 3.28
E360K | 3.02 | – | – | – | – | –
E360G | 2.14 | – | – | 1.54 | – | –
K490E | 5.91 | – | – | – | – | –
K427T | 2.98 | – | – | – | – | –
P399E | 3.23 | 1.72 | 1.43 | 1.77 and 4.25 | 2.45 | –
D411K | 2.21 | – | – | – | – | –
H491K | 1.7 | – | 2.48 | – | – | –
H491N | 1.59 | – | – | – | – | –
H491A | 5.29 | 2.04 | – | – | – | –
R379L | 2.11 | – | – | – | – | –
R379A | 2.05 | 2.9 | – | 2 | – | –
G419K | 1.49 | – | – | – | – | –
G419V | 2.41 | – | – | – | – | –
G419A | 1.71 | – | – | – | 1.44 | –
A368K | 3.84 and 3.98 | – | 5.98 | 10.5 and 10.2 | – | –
T394L | 5.41 | – | 9 | 13.8 | – | 9.86
D430K | 3.35 | – | – | – | – | –
D430L | 1.61 | – | – | 3.75 | – | –
M357K | 2.48 | – | – | – | – | –
D69K | – | 1.87 | – | – | 6.13 | –

Variant | enrichment [1] | enrichment [2] | enrichment [3] | enrichment [4] | enrichment [5] | enrichment [6]
S73K | – | 2 | – | – | – | 3.5 and 2.86
D476K | 6.16 | 4.37 | – | – | – | 5.97
I463A | 5.41 | – | – | – | – | –
Q373E | 3.3 | – | 1.81 | 2.85 | – | –
Q373Y | 2.52 | 3.17 | – | – | – | –
Q373A | 2.83 and 2.82 | – | – | 7.31 and 3.66 | – | 4.51
D425A | 2.63 | – | – | – | – | –
Q387L | 1.46 | 1.83 | – | – | 2.07 | 5.44
L58P | – | 6.14 | 2.09 | 7.73 | 4.64 and 3.28 | 6.79 and 6.06
P400A | 2.14 | – | – | – | – | –
Q376L | 2.08 | – | 3.07 | – | – | –
K366A | 3.27 | – | – | – | – | –
A406I | 8.86 | 3.97 | – | 6.43 | – | 5.49
A406S | 7.48 and 4.82 | 14.3 | – | 11.8 | 14 | –
I412L | 2.06 | – | – | – | – | 2.03
I412A | 2.67 | 3.34 | – | – | – | –
K372E | 5.53 and 3.24 | 4.46 and 4.21 | – | 1.68 | – | –
M431E | 5.53 | – | – | 3.66 | – | –
M431K | 2.78 | – | – | – | – | –
M431A | 2.04 | – | – | – | – | 2.23
R471E | 8.81 | 3.88 | – | – | – | –
A365E | 2.64 | 4.87 | 4.53 | 11.9 and 4.42 | – | –

Variant | enrichment [1] | enrichment [2] | enrichment [3] | enrichment [4] | enrichment [5] | enrichment [6]
L375E | 3.04 | 6.55 | 2.55 and 4.04 | – | 2.39 | 3.17
A350K | 1.95 | 4.8 and 3.36 | – | – | – | –
E382G | 1.92 | – | – | – | – | –
E382K | 2.77 | 1.79 and 2.41 | 1.47 and 2.48 and 1.86 | – | – | –
H479E | 3.67 | – | – | – | – | –
L371K | 2.05 | 2.49 | – | – | – | –
G486K | 3.4 | – | 5.67 | – | – | 10.3
L417K | 1.65 | – | – | – | 2.29 | 1.72
P409A | 2.09 | 3.21 and 3.14 | – | 4.62 | 3.57 and 4.04 | –
P409L | 2.46 | – | 3.35 and 2.55 | 1.48 and 1.82 | 3.03 | 1.63
N457L | 3.83 | – | – | – | – | –
S60F | – | 3.78 | – | – | – | –
F415K | 2.05 | – | – | 1.8 and 3.49 | – | 2.73
E359K | 1.99 | 1.99 | – | 7.74 | – | –
E472R | 2.84 and 2.55 | – | – | – | – | –
E367L | 6.79 | 1.94 | – | – | – | –
E367A | 1.72 | 3.25 | – | – | 4.1 and 4.23 | 2.99
V39G | – | 1.41 | – | – | – | –
